The values below come from a protein production outcome set (Wang et al. 2014).
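Also: failed if final PepcDB status was selected cloned or expressed and not failed if soluble or beyond.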

The nature of this data set: label from the status in PepcDB records.
In the case of “MKPNFKNIDIYAGFQPQNGMEWQKENGITADWKTPEHINVKPVYTKEDLEGMEHLNYVAGIPPYLRGPYSMMYTFRPWTIRQYAGFSTAEESNAFYRRNLASGQKGLSVAFDLPTHRGYDPDHERVVGDVGKAGVSICSLENMKVLFDGIPLNKMSVSMTMNGAVLPIMAFYINAGLEQGAKLEEMAGTIQNDILKEFMVRNTYIYPPAFSMKIISDIFEYTSQKMPKFNSISISGYHMQEAGATADIELAYTLADGLEYLRAGVAAGIDIDAFAPRLSFFWAIGMNHFMEIAKMRAARMLWAKIVKQFNPKNPKSLALRTHSQTSGWSLTEQDPFNNVGRTCIEAMAAALGHTQSLHTNALDEAIALPTDFSARIARNTQIYIQEETYVCKNVDPWGGSYYVESLTNELAHKAWEHIQEIESLGGMAKAIETGVPKMRIEEAAARTQARIDSGAQTIVGTNKYRLEKEDPIDILEVDNTAVRLEQIENLKRLKEGRNQAEVDKALAAITECVKTGKGNLLELAVEAAHVRATLGEISDACETIVGRYKAVIRTISGVYSSESKKDTDFARACELTEEFAKKEGRRPRIMIAKMGQDGHDRGAKVVATGYADCGFDVDMGPLFQTPAEAARDAVENDVHVVGVSSLAAGHKTLIPQIIEELKKLGREDILVIAGGVIPAQDYDFLYKAGVVAIFGPGTSVAKAAVQIMDILLDEEE”, the protein production entry is on record as “failed”.

Consider “MKPRDTRVKPGSRVSLADWHTDGDAFVGKDKAASMARLDDDRVRLEELQELLYAEGKHRLLVVLQAMDTAGKDSTIRHVFRGVDPLGVRVANFGVPSTHELRHDYLWRVHPHVPASGEIAIFNRSHYEDVLVPRVNGAIGHAECERRYRQINDFERMLSETGTTIRKFYLHISKDEQKKRLEARRDTPKKRWKFQPGDLAVRAQWDDYRAAYDALLSATSTRHAPWHVVPADDKLARNLIVSALLIEALEGLDMRYPEPVAGVAGTPII”, for which the protein production result is reported as “not failed”.

With “MKPRKKSVQPIGLKDITIVDDAKMKKAITAAALGNAMEWFDFGVYGFVAYALGKVFFPNADPSVQMIAALATFSVPFLIRPLGGLFFGALGDRFGRQKILAATIVIMSLSTFAIGLIPSYASIGIWAPILLLLAKMAQGFSVGGEYTGASIFVAEYAPDRKRGFLGSWLDFGSIAGFVLGAGVVVLISTVLGEEKFLDWGWRLPFFLALPLGIIGLYLRHALEETPAFQQHVDKLEQGDREGLASGPKVSFKEVATQHWRSLVTCIGVVIATNVTYYMLLTYMPSYLSHNLHYSEDHGVLIIIAIMVGMLFVQPIIGLLSDKFGRRPFIIVGSVGLLALAIPAFMLINSGVLGLIFAGLLIIAVLLNFFIGVMASTLPAMFPTHIRYSALASAFNISVLIAGLTPTLAAWLVETTNDLYMPAYYLMVIAAVGLVTGLTMKETANKPLRGAAPAASDIEEARELLQEHHDNIEQKIEDIDAQIAELEAKREKLALQHPRIE”, the protein production result is “not failed”.

Consider “MKPTLFLLAAGMGSRYGGLKQLDGLGPNGETIMDYSIYDAINAGFGKLVFVIRKDFEQDFREKIISKYEGHIPCELVFQSIDDLPEGFTCPADRTKPWGTNHAVMMGADVISEPFAVINCDDFYGRDSFQVMGKFLSALPENSKNVYSMVGFRVGNTLSESGTVSRGICSTDANNLLTSVVERTKIQRLDGEVKYIDDNGEWTATPDTTPVSMNFWGFTPDYFAYSEEFFKTFLSDPKNMENLKSEFFIPLMVDKLINDGTATVEVLDTTSKWFGVTYPEDRQSVVDKIQALVDAGEYPAKLFLEHHHHHH”, for which the protein production result was “failed”.

Consider “MKPVIQTFLRAAAVAGLALLAGCAGVSTTQSGAIGVDRTQYMSSLVPEQALVQEAGQQYAEIVQEARAKGLLDRDPAQLSRVRAISQRLIAQTGVFRADAANWPWEVHVLSVDEVNAWCMPGGKIAVYTGLLAHIKPTDDELAAVLGHEIAHALREHARERVSQQMATSIGLSVLSMATGSPGASDLGGKLTEVMFTLPNSRTHETEADRMGVELAARAGFDPRAAVTLWQKMGAADGNAPPEFLSTHPSASTRIGELQQALQKVLPLYEQARGQAAKLEHHHHHH”, for which the protein production entry is “not failed”.

For “MKQFLITGGTGMVGSQLVNKLKNRDVHITILTRSDKQSDDPKISYVNWSKDGWMSQVPDIDVVVNLAGATLNKRWTPSYKQLIMTSRIQSTQSLVDLFSQREHKPEVLFNASAMGYYPPSLYHTYTEKYQTHPFDFLSDVVYQWERFAKRFESFGTRVVLGRFSMILSNDGGALQTMKLPYKFFVGGKLGSGFQWYSWIHINDLVRAILFTIDNPNAKGPFNMAAPIAERQNLFGYTLARVMHRPHETWVPSFLMRLALGEMSTVVLDTQKVLPNKLDALGFTFNYSNLKIAFEDLIDALEHHHHHH”, the protein production entry is “failed”.

On to “MKQILTYLLFIWILLPLKAEEKIYTVDNIPKVHLQNKMQYVCNPAGILSQQACDEIDAMLYALEQQTGIETVVAIVPSIGDKDCFEFSHQLLNQWGVGKKGKDNGLVILLVTDQRCIQFYTGYGLEGILPDAICKRIQMQEMIPYLKKGEWNQGMLAGVKAVCQRLDGSMVNDDEGRGEEGISVSMLLVVILGFITIAGVVGTLAVRASTRCPKCGKHQLQRSSTKLISNRNGVKTEDIIYTCRNCGHTVVRRQQSYDDNYRGRGGGGPFIGGFGGGSFGSGGGGGFSGGSFGGGSGGGGGAGSRFLEHHHHHH”, for which the protein production result is recorded as “failed”.

In the case of “MKQIRLLAQYYVDLMVKLGLVRFSLLLASVLVLLAMVVQMAVTLLLSGEVENIDVVRSIFFGLLITPWAVYFLSVVVEQLEESRQRLSKLVAKLEEMRHRDLELNVQLQENIAQLNQEIADRIKAEEARVLVMSRLKEEMSRREQAQIELEQQSALLRSFLDASPDLVYYRNEEKEFSGCNRAMELLVGKSQKQLIGLTPQDVYAPDIAEKVMETDEKVFRHNVSLTYEQWLVYPDGRKACFELRKVPFYDRMGKRHGLMGFGRDITERKRYQDALENASRDKTTFISTISHELRTPLNGIVGLSRILLDTQLDLEQQKYLKTIHVSAITLGNIFNDVIEMDKQERRKVQLDNQPIDFTGFLVDLENLGGLLAEQKGLKLIMDQHQPLPQKVITDGTRLRQILWNLLSNAVKFTPKGEKGEKGEIVVRVWHEKGDRLRFEVEDSGMGIPADELEKIFAMYYQVKDQHGGKPATGSGIGLAVSKRLAQNMGGDIHVSSSQGKGSCFTLTVIAPSADEAGSGLEDDDDLPLPALHVLLVEDIELNVVVARSVLEKLGNSVDVAMTGQEALDMFDPDEFDLVLLDIQLPDMTGLDVARQLRSRYGKRSLPPLVALTANVLKDKREYLDAGMDDVLSKPLSVPALTAVIKQHWDTHTVWTEESVVEEGDEMAKVKEDLLDIPMLEQYLDLVGPKLIHQSLEMFEQMMPGYLAILDSNMTARDQKGITEEGHKIKGAAGSVGLRHLQQIAQQIQTSSLPAWWDNVQEWIDELKHDWRHDVQVLRDWVAKAEKES”, the protein production entry is listed as “failed”.

On to “MKQIRMLAQYYVDLMMKLGLVRFSMLLALALVVLAIVVQMAVTMVLHGQVESIDVIRSIFFGLLITPWAVYFLSVVVEQLEESRQRLSRLVDKLEEMRERDLKLNVQLKDNIAQLNQEIGEREKAEAERETTLEQLKIEMKEREETQIQLEQQSSFLRSFLDASPDLVFYRNEDKEFSGCNRAMELLTGKSEKQLIHLKPQDVYSEEAAEKVLETDEKVFRHNVSLTYEQWLDYPDGRKACFEIRKVPYYDRVGKRRGLMGFGRDITERKRYQDALERASRDKTTFISTISHELRTPLNGIVGLSRILLDTELTSEQEKYLKTIHVSAVTLGNIFNDIIDMDKMERRKVQLDNQPVDFTSFLADLENLSGLQAQQKGLRFVLEPSLPLPHKVITDGTRLRQILWNLISNAVKFTPQGGGVNVRVRYDEGDILHFEVEDSGIGIPEAEQDKIFAMYYQVKDSHGGKPATGTGIGLAVSRRLARNMGGDISVTSQPGKGATFTLTVHAPAIAEEVEDTLAEDDMPLPALNVLLVEDIELNVIVARSVLEKLGNSVDVAMTGKAALEMFEPGEYDLVLLDIQLPDMTGLDISRELKQRFAADELPPLVALTANVLKNKKEYLDAGMDDVLSKPLSVPALTAMIKKFWDAPDEEAQEAPAADLHKADAVLDTDMLEQYIELVGPKLINDGLAVFEKMMPGYMSVLESNLTARDQKGIVEEGHKIKGAAGSIGLRHIQQLGQQIQTPDLPAWSDNVAEWVEEMKSEWQNDVAVLKAWVAKASKK”, for which the protein production result is listed as “failed”.

“MKQKNAYNRLTNHYDDVLTGRKWWSWLYMHCLWKTDDNIIAGSVLDMIPGNFEGRILDVPVGTAIFTYDKYRRMPQAEIVGLDYSQEMLDIAAMRFSAEQITNVSLRQGDVGSLPFPDAAFDLVLSMNGFHVFPDKDRAFAETFRVLRGGGLFCGCFYVKGERKPADWFVRKFLDKKGLFRPPHYTREEAIEKLRSLYGDNVEIQDARSLLVFKCTKPRLEHHHHHH”: the protein production entry was “not failed”.
